From patent publication US20220177583A1 (University of California, published 2022)
Positions count from the first letter of the chain named.

T1: human CLDN6, endogenously expressed on cancer cell lines (human, UniProt P56747 1-220)
T1 construct: also called Endogenous CLDN6+; CLDN6 on ARK2, OVCA429, UMUC4 cells
T1 sequence: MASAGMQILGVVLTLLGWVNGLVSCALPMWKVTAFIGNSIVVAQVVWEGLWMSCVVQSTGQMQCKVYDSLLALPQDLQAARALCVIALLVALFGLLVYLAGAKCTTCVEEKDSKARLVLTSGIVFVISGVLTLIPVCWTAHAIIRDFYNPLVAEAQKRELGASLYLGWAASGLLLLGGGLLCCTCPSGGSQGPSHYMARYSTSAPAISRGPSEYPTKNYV

T2: mouse CLDN6 fused to GFP, expressed on engineered HEK293T cells (mouse, UniProt Q9Z262 1-219)
T2 construct: whole, on cells; also called HEK293T-CLDN6-mGFP Artificial CLDN6+ (mouse); murine CLDN6; not shown: GFP tag
T2 sequence (looked up): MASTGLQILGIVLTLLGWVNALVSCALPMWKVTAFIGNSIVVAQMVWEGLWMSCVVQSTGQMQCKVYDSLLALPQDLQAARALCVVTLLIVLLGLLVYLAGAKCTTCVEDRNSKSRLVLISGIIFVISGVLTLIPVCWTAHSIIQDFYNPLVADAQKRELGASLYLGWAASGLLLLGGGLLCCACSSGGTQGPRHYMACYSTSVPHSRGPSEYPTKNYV

B1: AB3-2 (antibody, V domains shown)
VH: EVQLLESGGGLVQPGGSMRLSCAASGFTFSNYWMNWVRQAPGKGLEWVAQIRLKSDNYATHYADSVKGRFTISRDDSKNTVYLQMNSLRAEDTGVYYCNDGPPSGCWGQGTLLTVSS
VL: DIQMTQSPSSLSASVGDRVTITCRISENIYSYLAWYQQKPGKAPKLLIYNAKILVEGVPSRFSGSGSGTDFTLTISSLQPEDFATYYCQHHYTVPWTFGQGTKLEIK
notes: Humanized; also called humanized AB 3-2
B2: AB3-5 (antibody, V domains shown)
VH: B1 VH with C106Y
VL: B1 VL with I48V, A84G
notes: Humanized; also called humanized AB 3-5
B3: AB9-3 (antibody, V domains shown)
VH: QVQLVQSGAEVKKPGASVKMSCKASGYRFTDYNMHWVRQAPGQGLEWIGYINPNNGGTNYAQKFQGRATLTVDTSTSTAYMELSSLRSEDTAVYYCARDYLYFFDCWGQGTLLTVSS
VL: DIQMTQSPSSLSASVGDRVTITCLASQTIGTWLAWYQQKPGKAPKLLIYAAASLADGVPSRFSGSGSGTDFTFTISSLQPEDFVTYYCQQLYSIPRTFGQGTKLEIK
notes: Humanized; also called humanized AB 9-3
B4: AB18-chim (antibody, V domains shown)
VH: QVQLKQSGPELEKPGASVKISCKASGYSFTGYNMNWVKQSNGKSLEWIGNIDPYYGGSTYNQKFTGKATLTVDKSSSTAYMQLKSLTSEDSAVYYCARERSGYVFSAMDYWGQGTSVTVSS
VL: NIMMTQSPSSLAVSAGEKVTMSCKSSQSVLFSSNQKNYLAWYQQKPGQSPRLLIYWASTRESGVPDRFTGSGSGTDFTLTISNVQAEDLAVYYCHQYLSSRTFGAGTKLELK
notes: Parental antibody prior to humanization ('chim'); also called pre-humanized form of AB18
B5: AB1-7 (antibody, V domains shown)
VH: QVQLVQSGAEVKKPGASVKMSCKASGYTFTTYTMHWVRQAPGQGLEWIGFINPSSGYTDYAQKFQGRVTLTADTSTSTVYMELSSLRSEDTAVYYCANGDYYVAYWGQGTLVTVSS
VL: DIQLTQSPSSLSASVGDRVTMTCTASSSVSSTYFHWYQQKPGKAPKLLIYSTSNLASGVPSRFSGSGSGTDYTLTISSMQPEDAATYYCHQYHRSPLTFGQGTKLEIK
notes: Humanized; also called humanized AB 1-7
B6: AB1-5 (antibody, V domains shown)
VH: B5 VH with M20V, I48M, L70M
VL: B5 VL with L48W
notes: Humanized; also called humanized AB 1-5
B7: AB1-3 (antibody, V domains shown)
VH: B5 VH with M20V, I48M, L70M
VL: B5 VL with L4M, M21I, M79L, A84F
notes: Humanized; also called humanized AB 1-3
B8: AB1-11 (antibody, V domains shown)
VH: B5 VH with T74K
VL: B5 VL with L48W
notes: Humanized; also called humanized AB1-11; HU-11
B9: AB1-4 (antibody, V domains shown)
VH: B5 VH with M20V, I48M, L70M
VL: B5 VL
notes: Humanized; also called humanized AB 1-4
B10: AB9-chim (antibody, V domains shown)
VH: EVQLQQSGPELVKPGASVKMSCKASGYRFTDYNMHWVKQSHGKSLEWIGYINPNNGGTNYNQNFKGKATLTVNKSSSTAYMELRSLTSEDSAAYYCARDYLYFFDCWGQGTTLTVSS
VL: DIQMTQSPASQSASLGESVTITCLASQTIGTWLAWYQQKPGKSPQLLIYAAASLADGVPSRFSGSGSGTRFSFKISSLQAEDFVSYYCQQLYSIPRTFGGGTKLEIK
notes: Parental antibody prior to humanization ('chim'); also called pre-humanized form of AB9
B11: AB4-6 (antibody, V domains shown)
VH: QVQLVQSGAEVKKPGASVKMSCKASGYTFTSYTMHWIRQAPGQGLEWIGYINPSSTYTHYAQKFQGRATLTADKSTSTAYMELSSLRSEDTAVYYCSRGELGGFAYWGQGTLVTVSS
VL: DVVMTQSPLSLPVTLGQPASISCRSSQSLVHSDGNTYLNWYQQRPGQSPRLLIYKVSNRFSGVPDRFSGSGSGTDFTLKISRVEAEDVGVYYCSQSTHVPYTFGQGTKLEIK
notes: Humanized; also called humanized AB 4-6
B12: AB4-9 (antibody, V domains shown)
VH: B11 VH with A61I, Q62K, Q65K, G66D, K74T
VL: B11 VL
notes: Humanized; full-length IgG; see note of AB4-8; also called humanized AB 4-9
B13: AB4-10 (antibody, V domains shown)
VH: B11 VH with L45Q, A61I, Q62K, Q65K, G66D, K74T
VL: B11 VL
notes: Humanized; full-length IgG; see note of AB4-8; also called humanized AB 4-10
B14: AB4-11 (antibody, V domains shown)
VH: B11 VH with A61I, Q62K, Q65K, G66D
VL: B11 VL
notes: Humanized; full-length IgG; see note of AB4-8; also called humanized AB 4-11
B15: AB4-8 (antibody, V domains shown)
VH: QVQLVQSGAEVKKPGASVKVSCKASGYTFTSYTMHWVRQAPGQGLEWMGYINPSSTYTHYIKKFKDRVTMTADTSTSTVYMELSSLRSEDTAVYYCSRGELGGFAYWGQGTLVTVSS
VL: B11 VL
notes: Humanized; full-length IgG; also called humanized AB 4-8
B16: AB4-12 (antibody, V domains shown)
VH: B11 VH with L45Q, A61I, Q62K, Q65K, G66D
VL: B11 VL
notes: Humanized; full-length IgG; see note of AB4-8; also called humanized AB 4-12
B17: AB4-7 (antibody, V domains shown)
VH: B11 VH with L45Q
VL: B11 VL
notes: Humanized; also called humanized AB 4-7
B18: AB1-Chim (antibody, V domains shown)
VH: QVQLQQSAAELARPGASVKMSCKASGYTFTTYTMHWVKQRPGQGLEWIGFINPSSGYTDYNQKFKDRTTLTADKSSSTVYMQLSSLTSEDSAVYYCANGDYYVAYWGQGTLVTVSA
VL: QIVLTQSPAIMSASLGERVTMTCTASSSVSSTYFHWYQQKPGSSPKLWIYSTSNLASGVPRRFSGSASGTSYSLTISSMEAEDAATYYCHQYHRSPLTFGAGTKLELK
notes: Parental antibody prior to humanization ('chim'); also called pre-humanized form of AB1
B19: AB18-3 (antibody, V domains shown)
VH: QVQLVQSGAEVKKPGASVKVSCKASGYSFTGYNMNWVRQAPGQGLEWMGNIDPYYGGSTYAQKFQGRVTMTVDTSTSTVYMELSSLRSEDTAVYYCARERSGYVFSAMDYWGQGTLVTVSS
VL: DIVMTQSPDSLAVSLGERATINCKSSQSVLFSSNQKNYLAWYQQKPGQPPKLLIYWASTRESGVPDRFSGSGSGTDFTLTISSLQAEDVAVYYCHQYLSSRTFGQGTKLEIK
notes: Humanized; full-length IgG; also called humanized AB 18-3
B20: AB18-5 (antibody, V domains shown)
VH: B19 VH with V20I, M48I, V68A, M70L, V79A
VL: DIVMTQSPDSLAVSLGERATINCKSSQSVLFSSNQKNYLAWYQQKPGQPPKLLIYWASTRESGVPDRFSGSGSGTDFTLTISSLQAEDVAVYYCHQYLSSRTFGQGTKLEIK
notes: Humanized; also called humanized AB 18-5
B21: AB18-6 (antibody, V domains shown)
VH: B19 VH with V20I, M48I, V68A, M70L, V79A
VL: DIVMTQSPDSLAVSLGERVTMNCKSSQSVLFSSNQKNYLAWYQQKPGQPPKLLIYWASTRESGVPDRFSGSGSGTDFTLTISSVQAEDVAVYYCHQYLSSRTFGQGTKLEIK
notes: Humanized; also called humanized AB 18-6
B22: AB18-4 (antibody, V domains shown)
VH: B19 VH
VL: B21 VL
notes: Humanized; also called humanized AB 18-4
B23: AB4-chim (antibody, V domains shown)
VH: QVQLQQSGAELARPGASVKMSCKASGYTFTSYTMHWIKQRPGQGQEWIGYINPSSTYTHYIKKFKDKATLTADKSSSTAYMQLRSLTSEDSAVYYCSRGELGGFAYWGQGTLVTVSA
VL: DVVMTQTPLSLPVSLGDQASISCRSSQSLVHSDGNTYLNWYLQKPGQSPKLLIYKVSNRFSGVPDRFSGSGSGTDFTLKIRRVEAEDLGVYFCSQSTHVPYTFGGGTKLEIK
notes: Parental antibody prior to humanization ('chim'); also called pre-humanized form of AB4

Target: T1, human CLDN6, endogenously expressed on …
Experiment: FACS, ARK2 cells, 0.3 ug Ab

| Binder | FACS signal |
| --- | --- |
| B1 | 14700 |
| B2 | 1280 |
| B3 | 1140 |
| B4 | 3440 |
| B5 | 4440 |
| B6 | 7490 |
| B7 | 2830 |
| B8 | 53900 |
| B9 | 3640 |
| B10 | 3510 |
| B11 | 3300 |
| B12 | 3060 |
| B13 | 7210 |
| B14 | 6390 |
| B15 | 3120 |
| B16 | 9690 |
| B17 | 2770 |
| B18 | 58800 |
| B19 | 1080 |
| B20 | 1310 |
| B21 | 1390 |
| B22 | 1130 |
| B23 | 19100 |

Target: T1, human CLDN6, endogenously expressed on …
Experiment: FACS, ARK2 cells, 1.5 ug Ab

| Binder | FACS signal |
| --- | --- |
| B1 | 33600 |
| B2 | 2910 |
| B3 | 1470 |
| B4 | 9150 |
| B5 | 11200 |
| B6 | 22400 |
| B7 | 10800 |
| B8 | 97700 |
| B9 | 10000 |
| B10 | 4490 |
| B11 | 9840 |
| B12 | 7790 |
| B13 | 20200 |
| B14 | 9170 |
| B15 | 7310 |
| B16 | 24200 |
| B17 | 7560 |
| B18 | 51900 |
| B19 | 1210 |
| B20 | 1330 |
| B21 | 1940 |
| B22 | 1380 |
| B23 | 38400 |

Target: T1, human CLDN6, endogenously expressed on …
Experiment: FACS, OVCA429 cells, 1.5 ug Ab

| Binder | FACS signal |
| --- | --- |
| B1 | 85900 |
| B2 | 2950 |
| B3 | 1260 |
| B4 | 25500 |
| B5 | 44700 |
| B6 | 54300 |
| B7 | 27500 |
| B9 | 34600 |
| B10 | 3570 |
| B18 | 177000 |
| B19 | 2700 |
| B20 | 4270 |
| B21 | 6750 |
| B22 | 3220 |
| B23 | 64800 |

Target: T2, mouse CLDN6 fused to GFP, expressed on …
Experiment: FACS, 293T clone with mouse CLDN6

| Binder | FACS signal |
| --- | --- |
| B1 | 31700 |
| B2 | 783 |
| B5 | 99700 |
| B6 | 128000 |
| B7 | 89300 |
| B8 | 101000 |
| B9 | 75900 |
| B11 | 14200 |
| B12 | 1780 |
| B13 | 2650 |
| B14 | 1230 |
| B15 | 4700 |
| B16 | 1130 |
| B17 | 6640 |
| B18 | 514000 |
